In the supplement of paper PMC10567573:
± gives the standard deviation.

Assay: protein stability index of a GFP-peptide fusion (GPS, HEK-293T) (PSI 1-6); higher = more stable
[1] = treatment: DMSO, c terminus: a fixed tail appended
[2] = treatment: MLN4924 1 uM, 8 h, c terminus: a fixed tail appended
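Further: 24-mer peptide tiles fused after GFP, lentivirally expressed, FACS-sorted into six equal bins by GFP/DsRed ratio, decoded by Illumina sequencing, PSI is the read-weighted mean bin number.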

Sequence | protein stability index [1] | protein stability index [2] | protein stability index (treatment: DMSO, c terminus: native) | protein stability index (treatment: MLN4924 1 uM, 8 h, c terminus: native)
LAQDWERCNTTCGRGVKKRLVLCM [ADAMTSL2] | 1.56 ± 0.33 | 1.79 ± 0.19 |  | 
LARKNREELDKYWSQQIEESTTVV [KRT18] | 4.24 ± 0.13 | 4.12 ± 0.23 |  | 
LCATHFGEPLEKVASVGNSRPTGQ [KISS1] | 3.95 ± 0.4 | 4.01 ± 0.23 |  | 
LCEKFDYLYGILEERKNEMTQVIT [TRIM55] | 2.7 ± 0.15 | 2.88 ± 0.4 |  | 
LCNEISLSEIKDAPKVNAVDTLNV [DLC1] | 3.77 ± 0.4 | 3.81 ± 0.25 |  | 
LDEFARENIDSLYNVNLSKGRAAL [SCNN1D] | 3.82 ± 0.17 | 3.85 ± 0.31 |  | 
LDHCANRVLMYGSELDADHPGFKD [TPH1] | 4.62 ± 0.27 | 4.81 ± 0.057 |  | 
LDLMPRLMTSKPAEVVKILQTMLR [INTS4] | 2.23 ± 0.16 | 2.13 ± 0.15 |  | 
LDLSSSSQMSPLSLYGENSNSLSS [ATF6] | 4.01 ± 0.19 | 3.92 ± 0.26 |  | 
LDQALKEGGKLPPPPPPSYDPDYI [ZC2HC1A] | 4.95 ± 0.16 | 4.89 ± 0.16 |  | 
LDVKSPPEPRSEVVPARLKRASAP [RIPK4] | 5.08 ± 0.49 | 5.11 ± 0.092 |  | 
LEADELCDDGGDGRGAVVPGAGLR [ZBTB22] | 5.18 ± 0.27 | 5.26 ± 0.17 |  | 
LEAIQLDGEILFSLLQKVSPVAHK [TBC1D10A] | 2.12 ± 0.48 | 2.01 ± 0.34 |  | 
LEDGQTPLHLSALRDDVLCARMLY [ASB7] | 2.67 ± 0.29 | 2.93 ± 0.33 |  | 
LEEEIRRKQILLRGKLKKTEEELR [ZC2HC1C] | 4.39 ± 0.17 | 4.59 ± 0.39 |  | 
LEEQFALEAGGYQAGAARLEEELR [PRPH] | 5.35 ± 0.49 | 5.62 ± 0.16 |  | 
LEGQSPPQSLPSTPKAAWIREEGR [PBXIP1] | 4.89 ± 0.26 | 4.76 ± 0.091 |  | 
LEHRLNEMERTQAQLRDAVQSLQL [RASAL3] | 4.16 ± 0.51 | 4.22 ± 0.19 |  | 
LELSYGFENGQKAAVVHHFESFPA [TOR1AIP2] | 2.52 ± 0.58 | 2.42 ± 0.18 |  | 
LEPKANLQAALQVLELHHSKLDTT [VPS39] | 4.2 ± 0.19 | 4.31 ± 0.19 |  | 
LEQEQEFQVNKLMKKIKKLENDTI [CCDC6] | 4.31 ± 0.6 | 4.19 ± 0.58 |  | 
LESLEDTHIMKGEDDALSDKHGCP [TRIB1] | 5.23 ± 0.69 | 5.37 ± 0.57 |  | 
LESYEDIHGTLHLERLAYLHARLR [PRAME] | 2.41 ± 0.18 | 2.61 ± 0.29 |  | 

Sequence | protein stability index [1] | protein stability index [2] | protein stability index (treatment: DMSO, c terminus: native) | protein stability index (treatment: MLN4924 1 uM, 8 h, c terminus: native)
LFFAVGIAQYALLGYFIRSWRTLA [SLC22A15] | 3.3 ± 0.34 | 3.18 ± 0.26 |  | 
LGACVRTAVAQGGWRSLWLGWGPT [SLC25A39] | 2.07 ± 0.63 | 2.04 ± 0.16 |  | 
LGLDDFESLKVIGRGAFGEVRLVQ [STK38L] | 3.55 ± 0.58 | 3.38 ± 0.33 |  | 
LGNREALIQFLEQVHQGIKGMVLD [CPN1] | 2.43 ± 0.34 | 2.26 ± 0.18 |  | 
LGVLHPNTKLRQAERLFENQLVGP [APMAP] | 2.57 ± 0.32 | 3.16 ± 0.24 |  | 
LHSGLVHGLAFWFDVAFIGSIMTV [CARM1] | 3.87 ± 0.46 | 3.56 ± 1.3 |  | 
LHTFTPAGRPRAERRPRRVEAERP [FAM189A2] | 4.45 ± 0.21 | 4.45 ± 0.31 |  | 
LIDVCKYLGSLQYRVWKKMLASVE [TRIM35] | 2.75 ± 0.43 | 2.25 ± 0.33 |  | 
LKLMVNVCGHTLCESCVDLLFVRG [MNAT1] | 3.35 ± 0.92 | 3.27 ± 0.44 |  | 
LKLRQQVIATATVYFKRFYARYSL [CCNC] | 2.85 ± 0.51 | 2.49 ± 0.18 |  | 
LKMKEREEAWVKIENLAKANPQYT [PPP2R5C] | 3.4 ± 0.22 | 3.56 ± 0.19 |  | 
LLAGGEKATMQNLNDRLASYLDKV [KRT17] | 2.84 ± 0.17 | 3.08 ± 0.31 |  | 
LLAKNSKPIHTTILNPHVHVIGED [CAMK2B] | 3.2 ± 0.14 | 3.35 ± 0.22 |  | 
LLDVKTRLEQEIATYRRLLEGEDA [KRT16] | 4.24 ± 0.15 | 4.2 ± 0.35 |  | 
LLFNVKSPTDIQDSSIIRTTQDLF [RHOBTB3] | 2.37 ± 0.17 | 2.35 ± 0.32 |  | 
LLPEKAFSDIPSPYLRGTIKMMQA [GFOD1] | 2.45 ± 0.23 | 2.81 ± 0.44 |  | 
LLPLRTKVAKLLGYSTHADFVLEM [NLN] | 2.22 ± 0.43 | 2.32 ± 0.28 |  | 
LLRDQFVKALEDFEDLCDRVFSDE [FAM9B] | 2.97 ± 0.29 | 3.17 ± 0.38 |  | 
LLRFGVPSPSTLEPHPRPLLQREL [TNXB] | 3.08 ± 0.18 | 2.93 ± 0.23 |  | 
LLSLVTFTFLSAKCLQGNADGDGG [PCDHGC5] | 3.46 ± 0.031 | 2.93 ± 0.44 |  | 
LLVLLLYAPVGFCLLVLRLFLGIH [AUP1] | 2.21 ± 0.23 | 2.11 ± 0.2 |  | 
LNPQLVQPAKKPLLWSDPADNKIV [ESRRG] | 3.78 ± 0.23 | 3.83 ± 0.047 |  | 
LNQGFLQAKPEKAAVAQKPRSHFT [MYBL2] | 3.88 ± 0.34 | 4.06 ± 0.12 |  | 

Sequence | protein stability index [1] | protein stability index [2] | protein stability index (treatment: DMSO, c terminus: native) | protein stability index (treatment: MLN4924 1 uM, 8 h, c terminus: native)
LPKLYLPTGPRRGRDELGGGRRPG [CDKN1A] | 4.05 ± 0.63 | 4.35 ± 0.38 |  | 
LPQDPHTKKALEAHCRADELASQD [PPP2R5C] | 5.04 ± 0.2 | 5.17 ± 0.27 |  | 
LPSNPCATTNACEKPIGSCVTNPC [KRT33B] | 4.29 ± 0.081 | 4.41 ± 0.17 |  | 
LPVDDDSDLNVVASFDRRGEYIYT [RBBP5] | 3.41 ± 0.25 | 3.7 ± 0.28 |  | 
LPYQRRYRERRDSDTYRCEERSPS [CLK3] | 4.77 ± 0.12 | 4.81 ± 0.22 |  | 
LQAPFLPPKAPPPVIKIPECPSMG [RHOBTB1] | 3.6 ± 0.23 | 3.53 ± 0.57 |  | 
LQFDPAPRRGEPHVTRRTPDYFL [PPP2CA] |  |  | 4.16 ± 0.3 | 4.18 ± 0.18
LQRPSYKFFFKSMDDDFGVVKEEI [DVL3] | 2.76 ± 0.29 | 2.85 ± 0.35 |  | 
LRERVKKVKRSLRQARKKGRHLEL [CCDC3] | 3.36 ± 0.39 | 3.58 ± 0.71 |  | 
LRKQLQPTHCKYEGPRKARRLWFA | 2.43 ± 0.089 | 2.07 ± 0.25 |  | 
LRLEEPRMDFAAKLMKNIRFPLMT [KLHL13] | 2.31 ± 0.29 | 2.43 ± 0.37 |  | 
LRNFNSAKDMKKAVAHMKYMGKGS [MATN2] | 3.05 ± 0.37 | 3.43 ± 0.46 |  | 
LRQLTAELAEHRCHPVERGIKSKE [PSD2] | 3.99 ± 0.26 | 4.2 ± 0.043 |  | 
LRRGASVNRTTRTNSTPLRAACFD [FEM1A] | 3.81 ± 0.38 | 3.87 ± 0.31 |  | 
LRYQETPGPREALSQLRVLCCEWL [ZNF232] | 2.13 ± 0.23 | 2.29 ± 0.22 |  | 
LSEAYRVLSREQSRRSYDDQLRSG [DNAJC4] | 3.2 ± 0.3 | 3.03 ± 0.3 |  | 
LSEEEEDEEEEEEEEEEGRFYYSE [KCNA4] | 5.2 ± 0.16 | 5.19 ± 0.39 |  | 
LSPLRAASDPLLSSVSPAVSKASS [TFE3] | 4.47 ± 0.18 | 4.68 ± 0.067 |  | 
LSRVKAAALSERGQAEEELIKAKS [LRRC45] | 5.01 ± 0.19 | 4.97 ± 0.061 |  | 
LSSLGENPQRQGLLKTPWRAASAM [GCH1] | 2.8 ± 0.23 | 3.17 ± 0.13 |  | 
LTCEFNNNHESLDEELHLLIISCR [FBXO39] | 2.27 ± 0.41 | 2.41 ± 0.39 |  | 
LTILAKRKSLFDDKAVEIEELTYI [STX5] | 2.2 ± 0.35 | 2.22 ± 0.49 |  | 
LTKSQVQDKPYKCTDCGKSFNHNA [ZNF8] | 3.32 ± 0.21 | 3.54 ± 0.27 |  | 

Sequence | protein stability index [1] | protein stability index [2] | protein stability index (treatment: DMSO, c terminus: native) | protein stability index (treatment: MLN4924 1 uM, 8 h, c terminus: native)
LTTSQERELGIRQRDEQLRALQER [FBF1] | 5.02 ± 0.38 | 5.24 ± 0.29 |  | 
LVPILIEAARNGKMKFVIGNGKNL [NSDHL] | 2.52 ± 0.3 | 2.36 ± 0.28 |  | 
LVQHGVKPQEIVQVEIFSTNPDLY [IQUB] | 2.15 ± 0.21 | 2.32 ± 0.33 |  | 
LWSQSYEDSSNQEEEGPSTFPDLE [MAGEA3] | 5.26 ± 0.21 | 5.06 ± 0.14 |  | 
LYHSVKQGPISTKELADFIRERAT [FCHO1] | 2.35 ± 0.14 | 2.4 ± 0.29 |  | 
MACAYAPSGCAIACGGLDNKCSVY [GNB5] | 2.44 ± 0.13 | 2.31 ± 0.25 |  | 
MADSASESDTDGAGGNSSSSAAMQ [CCDC6] | 5.51 ± 0.08 | 5.38 ± 0.32 |  | 
MAKSVKYTVNFLEAKEGDLHRIEI [CARM1] | 2.55 ± 0.61 | 2.46 ± 0.58 |  | 
MALRGPAGLGPGSRRPLDEAVAGA [DENND6A] | 4.12 ± 0.42 | 4.53 ± 0.19 |  | 
MARGRKMSKPRAVEAAAAAAAVAA [KMT5A] |  | 4.4 ± 0.55 |  | 
MASLSRPSLPSCLCSFLLLLLLQV [MOG] | 2.5 ± 0.41 | 2.28 ± 0.19 |  | 
MAVLKLTDQPPLVQAIFSGDPEEI [ANKRD44] | 3.37 ± 0.28 | 3.43 ± 0.21 |  | 
MDDSTEREQSRLTSCLKKREEMKL [TNFSF13B] | 5.04 ± 0.19 | 5.16 ± 0.11 |  | 
MEADSPAGPGAPEPLAEGAAAEFS [SLC35F2] | 5.5 ± 0.27 | 5.48 ± 0.29 |  | 
MEEEDPMPRQISRQSSVTESTLYP [TPRG1] | 5.1 ± 0.32 | 5.26 ± 0.34 |  | 
MEEQREALRKIIKTLAVKNEEIQS [FSD1] | 3.15 ± 0.1 | 3.16 ± 0.27 |  | 
MEEVLLLGLKDKEGYTSFWNDCIS [GOLPH3L] | 2.29 ± 0.29 | 2.61 ± 0.27 |  | 
MEGQRQESHATLTLAQAHFNNGEY [TTC32] | 4.42 ± 0.33 | 4.39 ± 0.18 |  | 
MEMAKFRYILPVYGICREPVGLVM [RIPK4] | 2.69 ± 0.39 | 3.08 ± 0.86 |  | 
MERPDKAALNALQPPEFRNESSLA [VMA21] | 4.77 ± 0.26 | 4.84 ± 0.088 |  | 
